These results are taken from patent US20220170056A1, “COMPOSITIONS AND METHODS FOR BIOSYNTHESIS OF […] CANNABINOIDS IN A HE[…]” (INMED PHARMACEUTICALS INC., priority 2019, published 2022).

One test deals with MEP pathway flux. The test is described as follows: Lycopene production (MEP pathway flux) in recombinant E. coli. To be noted: for terpene titer (lycopene and isoprene), in words: IspDF2 and IspDF3 versions of the Dxs-IspDF-Idi chassis, FIG. 18. It is filed as cell-based, E. coli BL21(DE3). The protocol:
Both isoprene and lycopene starter cultures were cultivated overnight at 30° C. in LB media (Sigma-Aldrich) containing appropriate antibiotic/s. Isoprene starter cultures were then diluted to 15 mL with the medium to OD600 of 0.2, induced with arabinose and/or IPTG; and allowed to grow for 24 h at 30° C. in 25 mL sealed glass tube. Lycopene starter cultures were diluted to 5 mL with the medium to OD600 of 0.2, induced with IPTG, and allowed to grow for 24 h at 30° C. in culture tubes in the dark.
Lycopene is an intracellular product. 2 mL of cell culture was centrifuged at 8000 rpm for 5 min and lycopene was extracted by extraction from the pellet with 1 mL acetone. Extraction was performed at 55° C. with intermittent vortexing for 20 min in reduced light condition. The acetone suspension was centrifuged and filtered before analysis. Samples were analyzed on the PerkinElmer Flexar system equipped with Zorbax C-18 column (4.6×250 mm, Agilent Technologies) maintained at 30° C. Samples were run with mobile phase consisting of 66% (v/v) methanol, 30% (v/v) tetrahydrofuran and 4% (v/v) water at 1 mL/min flow rate. Lycopene detection was done by monitoring absorbance at 474 nm wavelength using a photodiode detector.

Test [1] relates to E. coli. The test is described as follows: Olivetolate (OA) uptake into E. coli expressing heterologous transporter. The note with it: 24 to 48 hours after induction; compared to BL21 control without additional transporters (FIG. 8). Format: cell-based. The protocol:
(§1) The following experimental host cells were tested: (1) E. coli transformed with plasmids encoding arabinose inducible transporters pcaK or pp3656; and (2)) E. coli transformed with plasmids encoding arabinose inducible transporters pcaK or pp3656 and B5 plasmid (encoding ispDF1 enzyme, GPPS, and an optimized variant NphB (see, Valliere et al.).
(§2) Seed cultures of (1) were inoculated from glycerol stock into 5 mL LB with 34 μg/mL chloramphenicol, incubate at 30° C. overnight. Seed cultures of (2) were inoculated from glycerol stock into 5 mL LB with 34 μg/mL chloramphenicol and 50 μg/mL kanamycin, incubate at 30° C. overnight.
Induction cultures of (1) were inoculated from seed culture into total culture volume 5 mL TB media with 0.1 mM OA and cultured at 30° C. until OD600 of 0.8. Cultures were induced by adding arabinose and magnesium to a final concentration of 5 mM arabinose and 5 mM MgCl2. During induction, cultures were incubated at 30° C. Induction culture samples were collected at 24 h and 48 hr time points after the start of induction.
(§3) Cultures first centrifuged at 3000 rpm for 10 m to separate pellet and culture media supernatant fractions. Pellets also washed with PBS twice. Cell pellets lysed with B-PER Complete Reagent following manufacturer's protocol. […] Samples of the cell lysates were analyzed by SDS-PAGE analysis. […]

Test [2] has as its system E. coli. The test is described as follows: CBGA production in E. coli expressing NphB variant and transporter, fed OA. Format: cell-based. The note with it: cells expressing NphB variant; compared to control cell not expressing a heterologous transporter (FIG. 9). The method, then:
as §1, §2
Induction cultures of (2) were inoculated from seed culture into total culture volume 5 mL TB media with 0.5 mM OA, 5 mM MgCl2, and cultured at 30° C. until OD600 of 0.8. Cultures were induced by adding arabinose to a final concentration of 5 mM arabinose and IPTG to a final concentration of 100 μM. During induction, cultures were incubated at 30° C. Induction culture samples were collected at 24 h and 48 hr time points after the start of induction.
as §3

B1: IspDF2: novel bifunctional IspD-IspF fusion from soil metagenome fosmid NR0032_O07, 42.1 kDa (protein)
chain: MQVTAIIAAGGRGRRFGGGVPKQLVGVGGRPILERTVAAFLGHPAIHEVVVALPAELMADPPAYLRAAPKPIRLVAGGVQRQDSVRQAFQAANEQSDVIVIHDAARPFASADLISRTIAAAAEGGAALAAVPARDTVKRGAFAAGRTGPAGRQAVEGAPLLVVAETLPRDSIYLAQTPQAFRRDVLRDALALGEAGSEATDEATLAERAGHIVRLVEGEPANIKITTPDDLLVAFRIGAGYDLHRLVEGRPLVLGGVTIPFERGLLGHSDADAICHAVTDAVLGAAAAGDIGRHFPDSDPKWRDWSSIDLLRRASAIVKGRGYAIANVDAVVIAERPKLAPFLDEMRANVAGAIGIAVDAVGIKGKTNEGLGELGRGEAIAVHAVALLHL
On to B1, for which the “terpene titer (lycopene and isoprene), in words” value in the test on MEP pathway flux was “lowered the titer”.

B2: IspEF fusion: non-natural fusion, E. coli IspE linked by flexible linker (FL) to E. coli IspF (protein)
chain: MRTQWPSPAKLNLFLYITGQRADGYHTLQTLFQFLDYGDTISIELRDDGDIRLLTPVEGVEHEDNLIVRAARLLMKTAADSGRLPTGSGANISIDKRLPMGGGLGGGSSNAATVLVALNHLWQCGLSMDELAEMGLTLGADVPVFVRGHAAFAEGVGEILTPVDPPEKWYLVAHPGVSIPTPVIFKDPELPRNTPKRSIETLLKCEFSNDCEVIARKRFREVDAVLSWLLEYAPSRLTGTGACVFAEFDTESEARQVLEQAPEWLNGFVAKGANLSPLHRAMLSLGGGGSAAAMRIGHGFDVHAFGGEGPIIIGGVRIPYEKGLLAHSDGDVALHALTDALLGAAALGDIGKLFPDTDPAFKGADSRELLREAWRRIQAKGYTLGNVDVTIIAQAPKMLPHIPQMRVFIAEDLGCHMDDVNVKATTTEKLGFTGRGEGIACEAVALLIKATK
B2: in the test with MEP pathway flux, the “decrease in lycopene production than SALyc-SDFEI” value was “at least 65%” and the “decrease in normalized lycopene titers than SALyc-SDFEI” value was found to be 85%. For the same molecule, the “lycopene production / titers, in words” value in the test on MEP pathway flux (comparison as stated in the sentence (FIGS. 21, 23, 25)) was “lowered the lycopene production substantially”.

B3: pcaK: MFS aromatic acid antiporter amplified from Pseudomonas putida KT2440 (protein, UniProt Q51955 1-448, looked up)
4-hydroxybenzoate transporter …: MNQAQNSVGKSLDVQSFINQQPLSRYQWRVVLLCFLIVFLDGLDTAAMGFIAPALSQEWGIDRASLGPVMSAALIGMVFGALGSGPLADRFGRKGVLVGAVLVFGGFSLASAYATNVDQLLVLRFLTGLGLGAGMPNATTLLSEYTPERLKSLLVTSMFCGFNLGMAGGGFISAKMIPAYGWHSLLVIGGVLPLLLALVLMVWLPESARFLVVRNRGTDKIRKTLSPIAPQVVAEAGSFSVPEQKAVAARSVFAVIFSGTYGLGTMLLWLTYFMGLVIVYLLTSWLPTLMRDSGASMEQAAFIGALFQFGGVLSAVGVGWAMDRYNPHKVIGIFYLLAGVFAYAVGQSLGNITVLATLVLIAGMCVNGAQSAMPSLAARFYPTQGRATGVSWMLGIGRFGAILGAWSGATLLGLGWNFEQVLTALLVPAALATVGVIVKGLVSHADAT
For the molecule B3, the “olivetolate uptake inside cells” value with E. coli [1] was “increased olivetolate uptake”. Further, in the test on E. coli [2], the “production of CBGA” value is on record as “increased production of CBGA”.

B4: IspDF3: novel bifunctional IspD-IspF fusion from soil metagenome fosmid NR0037_N05, 40.2 kDa (protein)
chain: MVHVSAIIAAGGRGERFGGPQPKQLLLLGGVPILKRTVDAFLRGYPFIEVIVALPAEFVANPPDYLDDVIVVEGGARRQDSVANAFRAVAPSAQVVVIHDAARPLVTPSLIERTVDAAVKHGAAIAALRATDTVKRGDASRVIRGTLPRDEIFLAQTPQAFRAGVLRDALALAASAADATDEAMLAEQAGHHVRLVDGDPRNLKITTPEDLEMRIGNGYDLHRLVTGRPLVLGGVTIPFEKGLQGHSDADAVCHAITDAILGAASAGDIGRHFPDTDPAWKDAKSIVLLQQAAQIVSRAGYAIANLDVVVIAQQPKLVPHIDAIRHSVAHALGIDVQQVSVKGKTNEGVDSMGAGESIAVHAVALLQHS
For B4, the “terpene titer (lycopene and isoprene), in words” value with MEP pathway flux was “lowered the titer”.
